In patent publication US5416015A, “Isolated genes encoding peptidyl prolyl-cis.trans-isomerase and plasmids comprising said genes” (Tonen Corporation, priority 1989, dated 1995) one finds specific activity data, which are given here for 1 molecule.

This data set is described as follows: Specific activity of enzyme (PPIase activity measurement). The conditions noted are these: recombinant E. coli PPIase-β, FIG. 26. The class given is biochemical. The source says: As a result, the specific activity of the natural enzyme was.51,480 arbitrary units/[…] 1 unit, while that of the recombinant enzyme was 52,876 arbitrary units/A280 1 unit. Thus, no distinction could be made on specific activity (FIG. 26).

B1: recombinant enzyme: E. coli PPIase-β produced by E. coli HB101 transformed with expression plasmid pATtrp EPPIb (protein, UniProt P23869 1-164, looked up)
Peptidyl-prolyl cis-trans …: MVTFHTNHGDIVIKTFDDKAPETVKNFLDYCREGFYNNTIFHRVINGFMIQGGGFEPGMKQKATKEPIKNEANNGLKNTRGTLAMARTQAPHSATAQFFINVVDNDFLNFSGESLQGWGYCVFAEVVDGMDVVDKIKGVATGRSGMHQDVPKEDVIIESVTVSE
On to B1, for which the specific activity is listed as 52,876 arbitrary units/A280 1 unit.
